The values below come from patent US20220202899A1, “COMPOSITION FOR PREVENTION OR TREATMENT OF HAIR LOSS INCLUDING HAPLN1” (HAPLNSCIENCE INC., priority 2019, published 2022).

Experiment [1] deals with TβRI. The experiment can be described thus: TβRI protein in human hair germinal matrix cells treated with HAPLN1 and/or HA, then TGF-β2 (Western blotting). It counts as cell-based. Conditions: HAPLN1 25 ng/mL; TGF-β2 2 ng/mL. The protocol:
Human hair germinal matrix cells were dispensed into a poly-D-lysine 6-well plate at a concentration of 5.0×10^4 per well and cultured for 24 hours. After 24 hours, the medium was removed and replaced with a new serum-free medium. HAPLN1 was treated with 25 ng/mL, HA was treated with 25 μg/mL, and after 1 hour, TGF-β2 (2 ng/mL) was treated. After 23 hours, cells were collected, a lysis buffer (25 mM Tris-HCl, 1 mM EDTA, 0.1% Triton-X100, phosphatase inhibitor, and protease inhibitor) was added, and all the cells were broken through sonication. TβRI and TβRII in the sample were measured using Western blotting. The optical density of TβRII was compared to that of GAPDH using a densitometer.

Experiment [2] concerns TβRII. Nature of the experiment: TβRII protein in human hair germinal matrix cells treated with HAPLN1 by concentration (Western blotting). It counts as cell-based. Conditions: 20 ng/mL of HAPLN1, 24 hours, serum-free medium. The protocol: HAPLN1 was treated on human hair germinal matrix cells by concentration. Specifically, human hair germinal matrix cells (HHGMC) were dispensed into a poly-D-lysine 6-well plate at 5.0×10^4 per well and cultured for 24 hours. After 24 hours, the medium was removed and replaced with a new serum-free medium. HAPLN1 was treated with 0, 5, 10, 20 ng/mL and incubated for 24 hours. After collecting cells, a lysis buffer (25 mM Tris-HCl, 1 mM EDTA, 0.1% Triton-X100, phosphatase inhibitor, and protease inhibitor) was added, and all the cells were broken through sonication. TβRII in the sample was measured using Western blotting. The optical density of TβRII was compared to that of GAPDH using a densitometer (that is, TβRII optical concentration GAPDH optical concentration). Here, GAPDH was used as a loading control.

Experiment [3] concerns hair growth cycle. The experiment can be described thus: Intraperitoneal systemic administration of HAPLN1, mouse hair growth. It counts as in vivo. Conditions: 20-month-old C57 mice; 0.1 mg/kg intraperitoneally once every 3 days. Here is the method: HAPLN1 in the body decreases with age. HAPLN1 was administered to 20-month-old C57 mice with a decrease in HAPLN1 in the body.
Since C57 mice had different hair growth cycles, the cycles of all mice were uniformly adjusted through two hair growth cycles (see the schedule of FIG. 19). Thereafter, HAPLN1 was injected intraperitoneally at 0.1 mg/kg once every 3 days.

Experiment [4] deals with p-ERK1/2. The experiment can be described thus: p-ERK1/2 in human hair germinal matrix cells stimulated with TGF-β2 (Western blotting). It counts as cell-based. Conditions: TGF-β2 2 ng/mL, 1 hour. The protocol:
Human hair germinal matrix cells were dispensed into a poly-D-lysine 6-well plate at a concentration of 5.0×10^4 per well and cultured for 24 hours. After 24 hours, the medium was removed and replaced with a new serum-free medium. HAPLN1 was treated with 25 ng/mL and HA with 25 μg/mL, incubated for 23 hours, and then stimulated with TGF-β2 (2 ng/mL) for 1 hour. After collecting cells, a lysis buffer (25 mM Tris-HCl, 1 mM EDTA, 0.1% Triton-X100, phosphatase inhibitor, and protease inhibitor) was added, and all the cells were broken through sonication. p-ERK1/2, p-Smad2, p-MEK1/2, and p-c-Raf in the sample were measured using Western blotting. Optical densities of p-ERK1/2, p-Smad2, p-MEK1/2, and p-c-Raf were compared to those of ERK1/2, Smad2/3, MEK1, and c-Raf using a densitometer. Here, ERK1/2, Smad2/3, MEK1, and c-Raf were used as loading controls.

Experiment [5] has as its system cell membrane TβRII. The experiment can be described thus: Cell membrane TβRII protein (biotin labelling, immunoprecipitation, Western blotting). The class given is cell-based, human. Conditions: HAPLN1 25 ng/mL and/or HA 25 μg/mL; TGF-β2 2 ng/mL. The protocol: All proteins present in the cell membrane were labeled with biotin, and immunoprecipitation was performed with a biotin antibody to isolate only the cell membrane protein. In order to confirm changes in the ratio of TβRII among cell membrane proteins, Western blotting was performed. The specific experimental method will now be described.
Human hair germinal matrix cells were dispensed into a poly-D-lysine 100 mm dish at a concentration of 2.7×10^6 and cultured for 24 hours. After 24 hours, the medium was removed and replaced with a new serum-free medium. HAPLN1 was treated with 25 ng/mL and HA with 25 μg/mL, and after 1 hour, TGF-β2 (2 ng/mL) was treated. To label biotin after 23 hours, EZ-Link™ Sulfo-NHS-LC-Biotin (Thermo Fisher Scientific, MA, USA) was treated at a concentration of 250 μg/mL and incubated at 4° C. for 1 hour. The biotin labeling reaction was terminated by treatment with 50 mM Tris-HCl. After collecting cells, a lysis buffer (50 mM Tris-HCl, 150 mM NaCl, 1% NP-40, phosphatase inhibitor, and protease inhibitor) was added, and all the cells were broken through sonication. Cell membrane proteins were isolated by performing immunoprecipitation experiments using anti-biotin antibodies. TβRII in the isolated membrane protein sample was measured using Western blotting. The optical density of TβRII was compared to that of GAPDH using a densitometer.

Experiment [6] deals with human hair germinal matrix cells. The experiment can be described thus: Cell proliferation of human hair germinal matrix cells, CCK-8 (Example 10). It counts as cell-based. Conditions: HAPLN1 25 ng/mL and/or HA 25 μg/mL; TGF-β2 2 ng/mL, 23 hours. The protocol: Human hair germinal matrix cells were dispensed into a poly-D-lysine 96-well plate at a concentration of 2.0×10^4 per well and cultured for 24 hours. After 24 hours, the medium was removed and replaced with a new serum-free medium. HAPLN1 was treated with 25 ng/mL and HA with 25 μg/mL, incubated for 1 hour, and then stimulated with TGF-β2 (2 ng/mL) for 23 hours. CCK-8 (Enzo Biochem, NY, USA) was treated and incubated at 37° C. for 1 hour.

Experiment [7] has as its system TβRII. Nature of the experiment: TβRII protein after HAPLN1 and/or HA in CD44-deficient human hair germinal matrix cells. The class given is cell-based. Conditions: after CD44 siRNA; HAPLN1 25 ng/mL and/or HA 25 μg/mL; TGF-β2 2 ng/mL, 23 hours. The protocol:
The human hair germinal matrix cells, which were made to be deficient in CD44 by using CD44 siRNA, were dispensed into a poly-D-lysine 6-well plate at a concentration of 5.0×10^4 per well and cultured for 24 hours. After 24 hours, the medium was removed and replaced with a low-serum medium. CD44 siRNA and scrambled siRNA were added at a concentration of 25 pmol per well and incubated for 24 hours. After the siRNA and the medium were all removed, the medium was replaced with a serum-free medium having HAPLN1 (25 ng/mL) or HA (25 μg/mL) added thereto, and cultured for 1 hour. TGF-β2 (2 ng/mL) was treated and incubated for 23 hours. After collecting cells, a lysis buffer (25 mM Tris-HCl, 1 mM EDTA, 0.1% Triton-X100, phosphatase inhibitor, and protease inhibitor) was added, and all the cells were broken through sonication. TβRII in the sample was measured using Western blotting. The optical density of TβRII was compared to that of GAPDH using a densitometer.

B1: hyaluronan and proteoglycan link protein 1 (protein, UniProt P10915 16-354, looked up)
Hyaluronan and proteoglycan …: DHLSDNYTLDHDRAIHIQAENGPHLLVEAEQAKVFSHRGGNVTLPCKFYRDPTAFGSGIHKIRIKWTKLTSDYLKEVDVFVSMGYHKKTYGGYQGRVFLKGGSDSDASLVITDLTLEDYGRYKCEVIEGLEDDTVVVALDLQGVVFPYFPRLGRYNLNFHEAQQACLDQDAVIASFDQLYDAWRGGLDWCNAGWLSDGSVQYPITKPREPCGGQNTVPGVRNYGFWDKDKSRYDVFCFTSNFNGRFYYLIHPTKLTYDEAVQACLNDGAQIAKVGQIFAAWKILGYDRCDAGWLADGSVRYPISRPRRRCSPTEAAVRFVGFPDKKHKLYGVYCFRAYN
notes: extracellular matrix protein found in cartilage; stabilizes aggregates of hyaluronic acid and proteoglycans
Turning to B1, in experiment [1], the “concentration of TβRI” value is “no change”. Moreover, the “TβRII protein (optical density compared to GAPDH)” value in experiment [2] is listed as “increased”. Also, the “entry into the anagen phase” value in experiment [3] is listed as “entered the anagen phase in a short period of time”. Moreover, the “ERK1/2 signaling (p-ERK1/2 compared to ERK1/2)” value in experiment [4] (HAPLN1 25 ng/mL and/or HA 25 μg/mL, 23 hours) is on record as “activated”. Moreover, the “ERK1/2 signaling, HAPLN1 treated together with HA” value in experiment [4] (HAPLN1 25 ng/mL with HA 25 μg/mL) was “enhanced the activation of ERK1/2 signaling of HA”. In addition, in experiment [5], the “cell membrane TβRII protein concentration” value is recorded as “increased”. In addition, in experiment [6], the “cell proliferation (absorbance at 450 nm) compared to the control group” value is given as “promoted”. Also, in experiment [7], the “TβRII protein in CD44-deficient cells” value is given as “not confirmed that TβRII was recovered”.
